# Assays:
# [1] = Western blot, N-terminal cleavage, rat cardiomyocytes; settings: glycan lost
# [2] = molecular target: human β1-adrenergic receptor G49G389 variant (human) (UniProt P08588)
# [3] = molecular target: human β1-adrenergic receptor G49R389 variant (human) (UniProt P08588)
# [4] = molecular target: human β1-adrenergic receptor S49G389 variant (human) (UniProt P08588)
# [5] = Western blot, cleavage at R31↓L32; HEK293, CHO-K1, NRVM; settings: glycan lost; control: S49 (WT) variant
# [6] = Western blot, P52↓L53 cleavage in isolated HEK293i membranes; settings: glycan lost; control: S49 (WT) variant
# [7] = Flow cytometry, surface full-length receptor, cMyc antibody, HEK293i; settings: control: S49 (WT) variant
# [8] = Western blot, N-terminal cleavage, CHO-ldlD cells
# Sequence of β-arrestin2 fused to Renilla luciferaseII (P32121 whole entry, the tested form may be a part): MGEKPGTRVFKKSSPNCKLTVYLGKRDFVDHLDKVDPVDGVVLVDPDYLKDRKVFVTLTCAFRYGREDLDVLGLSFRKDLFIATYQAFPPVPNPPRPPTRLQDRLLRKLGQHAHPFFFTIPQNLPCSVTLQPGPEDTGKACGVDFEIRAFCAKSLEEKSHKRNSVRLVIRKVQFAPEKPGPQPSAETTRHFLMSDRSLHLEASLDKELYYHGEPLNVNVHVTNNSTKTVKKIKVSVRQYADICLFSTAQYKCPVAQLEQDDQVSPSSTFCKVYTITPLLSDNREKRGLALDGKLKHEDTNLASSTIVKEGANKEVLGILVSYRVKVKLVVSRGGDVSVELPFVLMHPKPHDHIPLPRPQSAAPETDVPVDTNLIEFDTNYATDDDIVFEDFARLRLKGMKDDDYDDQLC
# Sequence of human β1-adrenergic receptor S49G389 variant (human) (P08588 whole entry, change not shown): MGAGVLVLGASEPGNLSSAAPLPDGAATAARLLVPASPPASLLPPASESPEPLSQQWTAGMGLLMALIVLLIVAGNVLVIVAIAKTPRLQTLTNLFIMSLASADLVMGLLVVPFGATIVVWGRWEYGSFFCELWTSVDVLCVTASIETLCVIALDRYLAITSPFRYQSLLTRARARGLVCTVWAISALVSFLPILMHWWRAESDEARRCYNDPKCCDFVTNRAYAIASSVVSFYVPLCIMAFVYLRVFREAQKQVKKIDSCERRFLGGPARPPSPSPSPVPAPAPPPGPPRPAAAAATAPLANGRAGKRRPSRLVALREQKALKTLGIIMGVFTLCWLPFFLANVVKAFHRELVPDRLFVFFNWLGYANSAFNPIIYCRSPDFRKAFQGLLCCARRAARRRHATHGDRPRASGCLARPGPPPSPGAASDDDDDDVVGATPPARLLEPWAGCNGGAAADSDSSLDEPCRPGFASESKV
# Sequence of human β1-adrenergic receptor G49G389 variant (human) (P08588 whole entry S49G): as the sequence (P08588 whole entry, change not shown) above, with S49G counted along it
# Sequence of human β1-adrenergic receptor G49R389 variant (human) (P08588 other isoform, or with tags, fused parts or gaps S49G | R389 (the paper's WT allele at rs1801253) | mutant): as the sequence (P08588 whole entry, change not shown) above, with S49G, G389R counted along it
substance,measurement,setting,value
human β1‐adrenergic receptor (hβ1AR): Galnt2 KO,other: proteolytic processing,[1]; control: S49 (WT) in WT NRVMs,increases
same,other: proteolytic processing,[1]; control: T29 variant in WT NRVMs,no change
β-arrestin2 fused to Renilla luciferaseII (from UniProt P32121 1-409) (natural protein),"E max of isoproterenol-induced β-arrestin2 recruitment to the plasma membrane, enhanced bystander BRET (β-arrestin2-RlucII with rGFP-CAAX) in HEK293S cells, normalised to S49R389",[2],83.3 % WT E max
same,"E max of isoproterenol-induced β-arrestin2 recruitment to the plasma membrane, enhanced bystander BRET (β-arrestin2-RlucII with rGFP-CAAX) in HEK293S cells, normalised to S49R389",[3],97.8 % WT E max
same,"E max of isoproterenol-induced β-arrestin2 recruitment to the plasma membrane, enhanced bystander BRET (β-arrestin2-RlucII with rGFP-CAAX) in HEK293S cells, normalised to S49R389",[4],89.4 % WT E max
human β1‐adrenergic receptor (hβ1AR): G49 variant,other: proteolytic processing,[5],no change
same,other: proteolytic processing,[6],increases
same,expression_or_secretion,[7]; glycan lost,no change
"human β1‐adrenergic receptor (hβ1AR): no GalNAc, no Gal",other: proteolytic processing,"[8]; glycan lost, control: S49 (WT) in CHO-ldlD with Gal + GalNAc",increases
human β1‐adrenergic receptor (hβ1AR): T29 variant,expression_or_secretion,[7]; glycan gained,increases
human β1‐adrenergic receptor (hβ1AR): GalNAc only (Tn),other: proteolytic processing,"[8]; glycan changed form, control: S49 (WT) in CHO-ldlD with Gal + GalNAc",increases
same,other: proteolytic processing,"[8]; glycan changed form, control: T29 variant in CHO-ldlD with Gal + GalNAc",no change
